These results are taken from paper PMC9435400.

Holding throughout (experiment): SEC
(In general: SEC sorts molecules by how far they enter the pores of the column.)

The target in test [1] is BtKY72 soluble spike ectodomain (2P, GSAS, T4 fibritin trimerization motif) (BtKY72 (sarbecovirus) | bacteriophage T4).
In test [2] the target is Yun11 soluble spike ectodomain (2P, GSAS, T4 fibritin trimerization motif) (Yun11 (sarbecovirus) | bacteriophage T4).
Test [3] deals with Pang17 soluble spike ectodomain (2P, GSAS, T4 fibritin trimerization motif) (pang17 (sarbecovirus of pangolins) | bacteriophage T4).
Test [4] deals with RmYN02 soluble spike ectodomain (2P, GSAS, T4 fibritin trimerization motif) (RmYN02 (sarbecovirus) | bacteriophage T4).
Test [5] addresses Rs4081 soluble spike ectodomain (2P, GSAS, T4 fibritin trimerization motif) (Rs4081 (sarbecovirus) | bacteriophage T4).
The target in test [6] is BM48-31 soluble spike ectodomain (2P, GSAS, T4 fibritin trimerization motif) (BM48-31 (sarbecovirus) | bacteriophage T4).
In test [7] the target is Rf1 soluble spike ectodomain (2P, GSAS, T4 fibritin trimerization motif) (Rf1 (sarbecovirus) | bacteriophage T4).
Test [8] addresses SARS-CoV-1 soluble spike ectodomain (2P, GSAS, T4 fibritin trimerization motif) (SARS-CoV-1 | bacteriophage T4) (UniProt P59594).

As usually defined, the stoichiometry N is a count of units in the complex or per binding partner. “BtKY72 soluble spike ectodomain (2P, GSAS, T4 fibritin trimerization motif) (domain or fragment)” showed a stoichiometry N in test [1] of 3.
In test [2], “Yun11 soluble spike ectodomain (2P, GSAS, T4 fibritin trimerization motif) (domain or fragment)” yielded a stoichiometry N of 3.
In test [3], “Pang17 soluble spike ectodomain (2P, GSAS, T4 fibritin trimerization motif) (domain or fragment)” gave a stoichiometry N of 3.
“RmYN02 soluble spike ectodomain (2P, GSAS, T4 fibritin trimerization motif) (domain or fragment)” returned a stoichiometry N in test [4] of 3.
For “Rs4081 soluble spike ectodomain (2P, GSAS, T4 fibritin trimerization motif) (domain or fragment)”, in test [5], the stoichiometry N stood at 3.
Take “BM48-31 soluble spike ectodomain (2P, GSAS, T4 fibritin trimerization motif) (domain or fragment)”: the stoichiometry N in test [6] came to 3.
Take “Rf1 soluble spike ectodomain (2P, GSAS, T4 fibritin trimerization motif) (domain or fragment)”: in test [7], the stoichiometry N came out at 3.
“SARS-CoV-1 soluble spike ectodomain (2P, GSAS, T4 fibritin trimerization motif) (from UniProt P59594 14-1190) (domain or fragment)” displayed a stoichiometry N in test [8] of 3.
